Here are results for 1 molecule from patent US20250375497A1 (UNIVERSITY OF VIRGINIA PATENT FOUNDATION, published 2025).

In the assay the target is T1, Myc-tagged barley CslF6 (barley (Hordeum vulgare subsp. vulgare)).
T1 construct: also called Myc-tagged CslF6 species; not shown: Myc tag
T1 chain: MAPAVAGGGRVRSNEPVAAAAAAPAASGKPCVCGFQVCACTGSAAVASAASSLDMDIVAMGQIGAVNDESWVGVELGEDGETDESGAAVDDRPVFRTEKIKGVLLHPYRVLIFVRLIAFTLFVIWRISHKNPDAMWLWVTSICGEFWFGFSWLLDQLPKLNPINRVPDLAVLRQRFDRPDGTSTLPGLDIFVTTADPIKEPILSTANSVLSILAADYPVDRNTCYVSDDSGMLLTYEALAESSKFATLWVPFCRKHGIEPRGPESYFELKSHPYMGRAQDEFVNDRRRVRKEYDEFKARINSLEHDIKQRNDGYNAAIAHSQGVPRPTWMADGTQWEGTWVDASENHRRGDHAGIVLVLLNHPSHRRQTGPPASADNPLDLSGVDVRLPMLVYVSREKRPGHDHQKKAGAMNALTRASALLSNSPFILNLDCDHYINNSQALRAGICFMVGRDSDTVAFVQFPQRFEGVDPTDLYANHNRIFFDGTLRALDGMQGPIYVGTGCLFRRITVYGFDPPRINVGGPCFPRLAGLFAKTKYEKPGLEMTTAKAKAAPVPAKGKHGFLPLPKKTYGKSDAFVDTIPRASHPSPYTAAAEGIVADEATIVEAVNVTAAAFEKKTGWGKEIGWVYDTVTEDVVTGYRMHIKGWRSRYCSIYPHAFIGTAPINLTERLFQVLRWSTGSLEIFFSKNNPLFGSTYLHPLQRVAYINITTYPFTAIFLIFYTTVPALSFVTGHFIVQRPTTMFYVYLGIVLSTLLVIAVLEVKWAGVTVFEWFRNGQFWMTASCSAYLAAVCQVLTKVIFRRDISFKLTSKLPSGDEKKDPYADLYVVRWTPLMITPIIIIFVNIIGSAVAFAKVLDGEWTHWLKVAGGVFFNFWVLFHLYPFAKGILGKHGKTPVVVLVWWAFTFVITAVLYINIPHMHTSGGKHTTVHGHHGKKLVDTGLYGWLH
Put plainly: co-purification of His- and Myc-tagged CslF6.

B1: barley (Hordeum vulgare) cellulose synthase-like CslF6 with N-terminal 12xHis tag (enzyme)
chain: MAPAVAGGGRVRSNEPVAAAAAAPAASGKPCVCGFQVCACTGSAAVASAASSLDMDIVAMGQIGAVNDESWVGVELGEDGETDESGAAVDDRPVFRTEKIKGVLLHPYRVLIFVRLIAFTLFVIWRISHKNPDAMWLWVTSICGEFWFGFSWLLDQLPKLNPINRVPDLAVLRQRFDRPDGTSTLPGLDIFVTTADPIKEPILSTANSVLSILAADYPVDRNTCYVSDDSGMLLTYEALAESSKFATLWVPFCRKHGIEPRGPESYFELKSHPYMGRAQDEFVNDRRRVRKEYDEFKARINSLEHDIKQRNDGYNAAIAHSQGVPRPTWMADGTQWEGTWVDASENHRRGDHAGIVLVLLNHPSHRRQTGPPASADNPLDLSGVDVRLPMLVYVSREKRPGHDHQKKAGAMNALTRASALLSNSPFILNLDCDHYINNSQALRAGICFMVGRDSDTVAFVQFPQRFEGVDPTDLYANHNRIFFDGTLRALDGMQGPIYVGTGCLFRRITVYGFDPPRINVGGPCFPRLAGLFAKTKYEKPGLEMTTAKAKAAPVPAKGKHGFLPLPKKTYGKSDAFVDTIPRASHPSPYTAAAEGIVADEATIVEAVNVTAAAFEKKTGWGKEIGWVYDTVTEDVVTGYRMHIKGWRSRYCSIYPHAFIGTAPINLTERLFQVLRWSTGSLEIFFSKNNPLFGSTYLHPLQRVAYINITTYPFTAIFLIFYTTVPALSFVTGHFIVQRPTTMFYVYLGIVLSTLLVIAVLEVKWAGVTVFEWFRNGQFWMTASCSAYLAAVCQVLTKVIFRRDISFKLTSKLPSGDEKKDPYADLYVVRWTPLMITPIIIIFVNIIGSAVAFAKVLDGEWTHWLKVAGGVFFNFWVLFHLYPFAKGILGKHGKTPVVVLVWWAFTFVITAVLYINIPHMHTSGGKHTTVHGHHGKKLVDTGLYGWLH
notes: Expressed in Sf9 insect cells and purified in detergent (LMNG/CHS, then GDN); also called HvCslF6; His-tagged CslF6; not shown: N-terminal 12xHis tag
Turning to B1, the binding result is “no binding”.
